T1: EPR-HV2 (EH), hirudin HV2 with EPR linked to its N-terminus
T1 sequence: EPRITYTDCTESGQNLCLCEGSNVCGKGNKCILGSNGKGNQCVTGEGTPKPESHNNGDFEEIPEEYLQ

T2: GVYAR-HV2 (GH), hirudin HV2 with GVYAR linked to its N-terminus
T2 sequence: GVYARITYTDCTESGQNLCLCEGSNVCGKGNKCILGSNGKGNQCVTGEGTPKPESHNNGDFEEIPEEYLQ


Tests used:
[1] = system: FH, hirudin linked at its amino-terminal with an oligopeptide recognizable and cleavable by blood coagulation factor Xa
[2] = system: TH, hirudin linked at its amino-terminal with an oligopeptide recognizable and cleavable by thrombin
[3] = system: T1, EPR-HV2 (EH), hirudin HV2 with EPR linked to its N-terminus
[4] = system: T2, GVYAR-HV2 (GH), hirudin HV2 with GVYAR linked to its N-terminus
[5] = system: rat carotid artery thrombosis model; test: Plasma TT levels in rat carotid artery thrombosis model; type: in vivo; settings: NS group = 100%, X ± SD
Text: (§1) (1) Analyses of GH, EH, FH and TH antithrombotic and hemorrhagic side-effects in rat carotid artery thrombosis model, and the results were listed in table 2 and 3.

[6] = system: rat carotid artery thrombosis model; test: Time needed for thrombogenesis in rat carotid artery thrombosis model; type: in vivo; settings: for Time needed for thrombogenesis: rat carotid artery, X ± SD, 10 animals; for time needed for thrombogenesis (in words): rat carotid artery thrombosis model, statement on table 2
Text: as §1

tail-cut mouse = test: Bleeding time in hemorrhagic model of tail-cut mouse; type: in vivo; settings: for Bleeding time: X ± SD, 15 animals; for influence on hemorrhagic indexes compared with HV2 (in words): statement on table 3 and 4
Protocol: (2) The hemorrhagic side-effects of GH, EH, TH and FH in hemorrhagic model of tail-cut mouse were analyzed, and the results were listed in Table 4.

FXa = FXa (Homo sapiens, UniProt P00742); test: Anticoagulation activity by fibrin-clot method before and after cleavage by FXa; type: biochemical
Protocol: (§2) EH, GH, FH and TH were cleaved respectively by thrombin, FXa and FXIa, then the activities of anticoagulation were assayed by fibrin-clot method.

thrombin = thrombin (Homo sapiens, UniProt P00734); test: Anticoagulation activity by fibrin-clot method before and after cleavage by thrombin; type: biochemical
Protocol: as §2

FXIa = FXIa (Homo sapiens, UniProt P03951); test: Anticoagulation activity by fibrin-clot method before and after cleavage by FXIa; type: biochemical
Protocol: as §2

FXa, sequence (P00742 235-488 limits assumed): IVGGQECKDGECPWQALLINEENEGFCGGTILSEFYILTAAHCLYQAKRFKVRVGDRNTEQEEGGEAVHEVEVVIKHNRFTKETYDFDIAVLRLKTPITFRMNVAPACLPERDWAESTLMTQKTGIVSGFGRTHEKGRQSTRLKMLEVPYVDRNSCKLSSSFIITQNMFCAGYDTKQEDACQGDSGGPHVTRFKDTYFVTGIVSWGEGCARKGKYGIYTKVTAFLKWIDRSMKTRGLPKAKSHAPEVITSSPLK
FXa, sequence (P00742 41-179 partner limits assumed): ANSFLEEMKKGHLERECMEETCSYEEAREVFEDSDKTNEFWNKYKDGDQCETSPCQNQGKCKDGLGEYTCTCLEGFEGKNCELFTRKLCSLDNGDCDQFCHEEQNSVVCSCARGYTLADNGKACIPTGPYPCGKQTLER
FXIa, sequence (P03951 388-625 limits assumed): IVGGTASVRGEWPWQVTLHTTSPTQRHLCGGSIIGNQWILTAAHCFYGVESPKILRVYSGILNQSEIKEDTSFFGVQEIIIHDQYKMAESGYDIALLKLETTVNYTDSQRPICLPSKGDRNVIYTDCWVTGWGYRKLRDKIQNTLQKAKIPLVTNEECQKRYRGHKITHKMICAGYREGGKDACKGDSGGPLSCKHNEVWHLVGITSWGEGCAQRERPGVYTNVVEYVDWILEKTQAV
FXIa, sequence (P03951 19-387 partner limits assumed): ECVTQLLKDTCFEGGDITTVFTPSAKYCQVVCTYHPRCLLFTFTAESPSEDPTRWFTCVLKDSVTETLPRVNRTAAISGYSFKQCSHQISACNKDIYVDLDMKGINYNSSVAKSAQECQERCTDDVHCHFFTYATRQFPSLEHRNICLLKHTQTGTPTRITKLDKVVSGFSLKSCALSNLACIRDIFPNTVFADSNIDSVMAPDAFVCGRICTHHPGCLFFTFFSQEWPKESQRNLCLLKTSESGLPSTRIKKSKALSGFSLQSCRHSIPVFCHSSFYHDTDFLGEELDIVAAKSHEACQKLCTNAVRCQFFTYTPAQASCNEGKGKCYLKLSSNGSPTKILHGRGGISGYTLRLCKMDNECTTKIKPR

Row | Molecule | anticoagulation activity (fibrin-clot method) after 3 h of cleavage [1] | anticoagulation activity (fibrin-clot method) after 6 h of cleavage [1] | anticoagulation activity (fibrin-clot method) at 0 h of cleavage [1] | anticoagulation activity (fibrin-clot method) after 3 h of cleavage [2] | anticoagulation activity (fibrin-clot method) after 6 h of cleavage [2] | anticoagulation activity (fibrin-clot method) at 0 h of cleavage [2] | anticoagulation activity (fibrin-clot method) after 3 h of cleavage [3] | anticoagulation activity (fibrin-clot method) after 6 h of cleavage [3] | anticoagulation activity (fibrin-clot method) at 0 h of cleavage [3] | anticoagulation activity (fibrin-clot method) after 3 h of cleavage [4] | anticoagulation activity (fibrin-clot method) after 6 h of cleavage [4] | anticoagulation activity (fibrin-clot method) at 0 h of cleavage [4] | recognition and cleavage, read by release of anticoagulation activity [4] | recognition and cleavage, read by release of anticoagulation activity [3] | % of TT changes ([5]; 2 mg/kg) | Time needed for thrombogenesis ([6]; 2 mg/kg) | Bleeding time (tail-cut mouse; tail-cut mouse, 1.5 mg/kg) | anticoagulation activity (FXa; 0 h) | anticoagulation activity (FXa; 3 h) | anticoagulation activity (FXa; 6 h) | further results
1 | blood coagulation factor XIa | 0 | 0 | 0 | 0 | 64 | 0 | 256 | 512 | 0 | 0 | 0 | 0 | GH can be recognizable and cleavable by two blood coagulation factors of FXIa and FXa respectively |  |  |  |  |  |  |  | 
2 | thrombin | 2 | 8 | 0 | 0 | 0 | 0 | 0 | 0 | 0 | 2 | 8 | 0 |  | EH can be recognizable and cleavable by two blood coagulation factors of thrombin and FXa respectively |  |  |  |  |  |  | recognition and cleavage, read by release of anticoagulation activity [2]: TH only by thrombin
3 | blood coagulation factor Xa | 64 | 128 | 0 | 32 | 64 | 0 | 64 | 128 | 0 | 64 | 128 | 0 | GH can be recognizable and cleavable by two blood coagulation factors of FXIa and FXa respectively | EH can be recognizable and cleavable by two blood coagulation factors of thrombin and FXa respectively |  |  |  |  |  |  | recognition and cleavage, read by release of anticoagulation activity [1]: while FH only by FXa
4 | hirudin [HV2, reference compound] |  |  |  |  |  |  |  |  |  |  |  |  |  |  | 1005.62 ± 361.28 % | 1117.00 ± 243.95 s | 1532.5 ± 420.74 s |  |  |  | 
5 | GH: hirudin (HV2) linked at its amino-terminal with the oligopeptide GVYAR recognizable and cleavable by both thrombin and coagulation factor Xa (protein, ends and bridges not checked, hirudin (HV2) linked at its amino-terminal with the oligopeptide GVYAR recognizable and cleavable by both thrombin and coagulation factor Xa) GVYARITYTDCTESGQNLCLCEGSNVCGKGNKCILGSNGKGNQCVTGEGTPKPESHNNGDFEEIPEEYLQ |  |  |  |  |  |  |  |  |  |  |  |  |  |  | 104.35 ± 17.21% | 918.10 ± 204.16 s | 165.46 ± 142.42 s | 0 | 64 | 128 | % of TT changes ([5]; 4 mg/kg): 114.94 ± 19.82 %; anticoagulation activity (thrombin; 0 h): 0; anticoagulation activity (thrombin; 3 h): 2; anticoagulation activity (thrombin; 6 h): 8; time needed for thrombogenesis (in words) [6]: prolonged in a dose-dependent manner; Time needed for thrombogenesis ([6]; 4 mg/kg): 1006.7 ± 227.37 s; anticoagulation activity (FXIa; 0 h): 0; anticoagulation activity (FXIa; 3 h): 0; anticoagulation activity (FXIa; 6 h): 0; influence on hemorrhagic indexes compared with HV2 (in words) (tail-cut mouse): less than that of HV2; Bleeding time (tail-cut mouse; tail-cut mouse, 6 mg/kg): 304 ± 178.99 s; bleeding time compared with FH and TH (in words) (tail-cut mouse; tail-cut mouse, statement): significantly shorter bleeding time than that of FH and TH group
6 | EH: hirudin (HV2) linked at its amino-terminal with the oligopeptide EPR recognizable and cleavable by both coagulation factors XIa and Xa (protein, ends and bridges not checked, hirudin (HV2) linked at its amino-terminal with the oligopeptide EPR recognizable and cleavable by both coagulation factors XIa and Xa) EPRITYTDCTESGQNLCLCEGSNVCGKGNKCILGSNGKGNQCVTGEGTPKPESHNNGDFEEIPEEYLQ |  |  |  |  |  |  |  |  |  |  |  |  |  |  | 108.41 ± 12.95% | 964.10 ± 179.68 s | 203.89 ± 97.41 s | 0 | 64 | 128 | % of TT changes ([5]; 4 mg/kg): 121.81 ± 13.68 %; anticoagulation activity (thrombin; 0 h): 0; anticoagulation activity (thrombin; 3 h): 0; anticoagulation activity (thrombin; 6 h): 0; time needed for thrombogenesis (in words) [6]: prolonged in a dose-dependent manner; Time needed for thrombogenesis ([6]; 4 mg/kg): 1083.90 ± 227.10 s; anticoagulation activity (FXIa; 0 h): 0; anticoagulation activity (FXIa; 3 h): 256; anticoagulation activity (FXIa; 6 h): 512; influence on hemorrhagic indexes compared with HV2 (in words) (tail-cut mouse): less than that of HV2; Bleeding time (tail-cut mouse; tail-cut mouse, 6 mg/kg): 338.77 ± 169.08 s

Reference: patent US8101379B2, “Preparation of low bleeding anticoagulant fusion protein and its use” (Institute of Radiation Medicine Academy of Military Medical …, priority 2006, dated 2012)
